The values below come from patent US8435522 (Teva, dated 2013).

Test [1] has as its target T1, CXCR3 (human cell surface protein CD183) (human, UniProt P49682 1-368).
T1 sequence (looked up): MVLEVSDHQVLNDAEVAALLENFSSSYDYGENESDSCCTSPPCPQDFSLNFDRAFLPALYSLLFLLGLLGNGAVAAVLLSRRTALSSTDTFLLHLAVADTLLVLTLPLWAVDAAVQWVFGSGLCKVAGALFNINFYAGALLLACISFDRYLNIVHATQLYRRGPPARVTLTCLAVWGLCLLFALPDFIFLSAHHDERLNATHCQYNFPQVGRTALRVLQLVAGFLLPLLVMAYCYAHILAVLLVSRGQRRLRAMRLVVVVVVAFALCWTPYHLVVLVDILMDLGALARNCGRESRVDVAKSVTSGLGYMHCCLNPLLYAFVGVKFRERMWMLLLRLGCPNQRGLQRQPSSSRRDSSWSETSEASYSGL
The test is described as follows: cell-based or functional assay.

The target in test [2] is T1, CXCR3 (human cell surface protein CD183). The test is described as follows: competition with Eu-V44 (Eu-labeled mouse CXCR3mAb) binding to Th1 cells. The procedure: Th1 cells were incubated in a 96 well plate with Eu-CXCR3mAb in the absence or presence of various concentrations humanized CXCRmAbs. After incubation (1 hr at RT), cell bound Eu-CXCR3mAb was separated from free Europium by washing three times and the plate was read using Vctor2 fluorometer. IC$50$ values were calculated using Prizm software. Ab1 has a heavy chain sequence of humanized anti-CXCR3 V44D7 VH Lead #5 amino acid and a light chain sequence of humanized anti-CXCR3 V44D7 VK Lead #1 (see Informal Sequence Listing) in an IgG1 backbone. Ab2 has a heavy chain sequence of humanized anti-CXCR3 V44D7 VH Lead #5 and a light chain sequence of humanized anti-CXCR3 V44D7 VK Lead #7 (see Informal Sequence Listing) in an IgG1 backbone. Humanized Ab (IgG4) has a heavy chain sequence of humanized anti-CXCR3 V44D7 VH Lead #5 and a light chain sequence of the original mouse anti-CXCR3 V44D7 VK in an IgG4 backbone. Figure 22: FIG. 22 illustrates inhibition Eu-CXC10 by humanized CXCR3Abs. […] After incubation (1 hr at RT), cell bound Eu-CXCL10 was separated from free Europium by washing three times and the plate was read using Vctor2 fluorometer. IC$50$ values were calculated using Prizm software. […] After 2 hr incubation at 37° C., cells migrated to the bottom wells were determined by cell titer glo method (Promega).

Test [3] has the same target. The test is described as follows: competition with Eu-IP-10 binding to Th1 cells.
Test [4] has the same target. Nature of the test: cell-based or functional assay. The source holds these as a separate data set.
The target is the same in test [5]. The test is described as follows: displacement of 125I-I-Tac binding to Th1 cells. In general terms: Loss of bound radioactivity is the signal in a displacement assay; it reports binding, not function.
The target of test [6] is T2, rat CXCR3 (on polarized rat Th1 cells) (rat, UniProt Q9JII9 1-367).
T2 construct: whole, on cells; the target meant is rat CXCR3
T2 sequence (looked up): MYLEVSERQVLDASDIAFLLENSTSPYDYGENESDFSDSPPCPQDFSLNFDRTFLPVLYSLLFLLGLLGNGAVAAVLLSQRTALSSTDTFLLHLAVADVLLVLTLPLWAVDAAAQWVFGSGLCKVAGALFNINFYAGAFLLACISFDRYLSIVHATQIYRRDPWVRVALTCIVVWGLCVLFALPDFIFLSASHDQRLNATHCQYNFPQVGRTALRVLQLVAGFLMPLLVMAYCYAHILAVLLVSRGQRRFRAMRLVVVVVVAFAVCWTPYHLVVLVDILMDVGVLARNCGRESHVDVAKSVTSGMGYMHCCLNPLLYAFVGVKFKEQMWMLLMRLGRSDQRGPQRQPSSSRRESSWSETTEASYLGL
The test is described as follows: FACS on polarized rat Th1 cells. The protocol: FACS analysis was performed to determine reactivity of mouse CXCR3mAb to polarized rat Th1 cells. Only rabbit anti-mouse CXCR3 Ab bound to rat Th1 cells. […] As a control, mouse anti-CXCR3mAb binding to human Th1 cells is also shown (bottom panel).
The parental mouse CXCR3mAb was tested for binding to polarized rat Th1 cells by FACS. Only rabbit anti-mouse CXCR3 Ab (positive control) bound to rat Th1 cells.

For test [7], the target named is T1, CXCR3 (human cell surface protein CD183). The test is described as follows: displacement of 125I-IP-10 binding to Th1 cells. The procedure:
Figure 14: FIG. 14 illustrates expression of CXCR3 on Th1 cells. Th1 and Th2 cells were generated from cord blood and CXCR3 and CCR4 expression were determined by FACS. CXCR3 was present only Th1 cells. […] IC$50$ values were calculated using Prizm software. Lead candidates were highlighted in green. […] IC$50$ values were calculated using Prizm software. Lead candidates were highlighted in green.

Test [8] has as its target T3, CXCR3 (human cell surface protein CD183) (human, UniProt P49682 1-368).
T3 chain: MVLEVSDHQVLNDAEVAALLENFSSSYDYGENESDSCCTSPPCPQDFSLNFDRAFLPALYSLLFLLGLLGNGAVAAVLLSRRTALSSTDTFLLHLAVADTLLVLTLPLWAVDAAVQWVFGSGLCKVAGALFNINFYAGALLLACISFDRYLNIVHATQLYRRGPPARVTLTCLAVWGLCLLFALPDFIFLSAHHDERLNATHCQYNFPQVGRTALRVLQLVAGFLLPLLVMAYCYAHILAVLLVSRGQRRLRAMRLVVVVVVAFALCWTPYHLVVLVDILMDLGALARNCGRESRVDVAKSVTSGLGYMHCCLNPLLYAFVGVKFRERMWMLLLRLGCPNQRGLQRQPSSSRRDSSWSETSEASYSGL
The test is described as follows: 125I-CXCL11 binding inhibition on Th1 cells.

B1: Humanized Ab2 H5K7 (antibody, V domains shown)
VH: EVQLLESGGGLVQPGGSLRLSCAASGFTFSNYAMSWVRQAPGKGLEWVSTISSGGGYTYYPDSLKGRFTISRDNSKNTLYLQMNSLRAEDTAVYYCAKHGAPMTTVITYAPYYFYYWGQGTTVTVSS
VL: ENVLTQSPAFLSVTPGEKVTITCRASSSVKYMYWYQQKPDQAPKLWIYYTSNLAPGVPSRFSGSGSGNDYTFTISSLEAEDAATYYCQQFTTSPYTFGGGTKLEIK
notes: IgG1 backbone, human kappa
The IC50 is the concentration needed to halve the response being measured. High values mean lower potency, low ones higher potency. In the case of B1, the “Chemotaxis IC50” value in test [1] came out at 0.28 nM. Further, the IC50 in test [2] was determined as 1.82 nM; in test [3], 0.35 nM.

B2: Mouse anti-CXCR3 V44D7 (antibody, V domains shown)
VH: EVMLVESGGGLVKPGGSLKLSCAASGFTFSNYAMSWVRQTPEKRLEWVATISSGGGYTYYPDSLKGRFTISRDNAKNTLFLQMSSLRSEDTAVYYCVRHGAPMTTVITYAPYYFDYWGQGTTLTVSS
VL: ENVLTQSPAIMSASLGEKVTMNCRASSSVKYMYWYQQKSDASPKLWIYYTSNLAPGVPARFSGSGSGNSYSLTISSMEGEDAATYYCQQFTTSPYTFGGGTKLEIK
notes: also called V44D7A; Ab#5
As to B2, in test [1], the “Chemotaxis IC50” value worked out at 0.09 nM. Moreover, in test [4], the “Inhibition of IP-10-induced Th1 chemotaxis, IC50” value was 35 ng/mL. The concentration for half-maximal inhibition (IC50) in test [5] amounted to 0.1 nM; in test [2] it was 0.29 nM; in test [3], 0.14 nM; in test [7], 0.13 nM. For the same molecule, the binding result in test [6] is “no binding”.

B3: CXCL11 (I-TAC, interferon-inducible T cell a-chemoattractant) (ligand)
chain: FPMFKRGRCLCIGPGVKAVKVADIEKASIMYPSNNCDKIEVIITLKENKGQRCLNPKSKQARLIIKKVERKNF
modifications: 125I label, site not stated
Regarding B3, the IC50 in test [8] was determined as 0.01 nM.
